Series [1] relates to HeLa Kyoto. Briefly: melting temperature (median over replicates), in situ; higher = more thermally stable.
In series [2] the test system is HeLa Kyoto. Briefly: solubility change mitosis vs G1/S (difference of NP-40 vs SDS log2 ratios) (log2 ratio difference); higher = more soluble in mitosis.
The test system of series [3] is HeLa Kyoto. The series can be described thus: thermal stability score vs G1/S (z-score of summed log2 fold changes over temperatures); higher = more thermally stable than in G1/S.
In series [4] the test system is HeLa Kyoto. The series can be described thus: solubility in G1/S (NP-40 vs SDS abundance) (log2 ratio); higher = more soluble. The note with it: cell cycle stage: G1/S.
Setting [5] is: cell cycle stage: early G1 (4.5 h after nocodazole release).

Experimental findings from the supplement of paper PMC5998384 are described below.
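For melting temperature (median over replicates), in situ in this document: HeLa Kyoto cells synchronized by double thymidine or nocodazole block, proteins quantified by TMT10plex mass spectrometry, three independent biological replicates.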
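For solubility change mitosis vs G1/S (difference of NP-40 vs SDS log2 ratios) in this document: synchronized HeLa Kyoto cells (double thymidine block for G1/S, nocodazole release for mitosis), protein amounts in NP-40 versus SDS lysates quantified by mass spectrometry, three biological replicates.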
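For solubility in G1/S (NP-40 vs SDS abundance) in this document: HeLa Kyoto cells arrested at G1/S by double thymidine block, proteins quantified by TMT10plex mass spectrometry in mild NP-40 versus SDS extracts, three biological replicates.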
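For thermal stability score vs G1/S (z-score of summed log2 fold changes over temperatures) in this document: synchronized HeLa Kyoto cells, proteins quantified by TMT10plex mass spectrometry, three biological replicates, mitosis taken 0.5 h after nocodazole release, G1/S directly after double thymidine block.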

With “MSSGKSARYNRFSGGPSNLPTPDVTTGTRMETTFGPAFSAVTTITKADGTSTYKQHCRTPSSSSTLAYSPRDEEDSMPPISTPRRSDSAISVRSLHSESSMSLRSTFSLPEEEEEPEPLVFAEQPSVKLCCQLCCSVFKDPVITTCGHTFCRRCALKSEKCPVDNVKLTVVVNNIAVAEQIGELFIHCRHGCRVAGSGKPPIFEVDPRGCPFTIKLSARKDHEGSCDYRPVRCPNNPSCPPLLRMNLEAHLKECEHIKCPHSKYGCTFIGNQDTYETHLETCRFEGLKEFLQQTDDRFHEMHVALAQKDQEIAFLRSMLGKLSEKIDQLEKSLELKFDVLDENQSKLSEDLMEFRRDASMLNDELSHINARLNMGILGSYDPQQIFKCKGTFVGHQGPVWCLCVYSMGDLLFSGSSDKTIKVWDTCTTYKCQKTLEGHDGIVLALCIQGCKLYSGSADCTIIVWDIQNLQKVNTIRAHDNPVCTLVSSHNVLFSGSLKAIKVWDIVGTELKLKKELTGLNHWVRALVAAQSYLYSGSYQTIKIWDIRTLDCIHVLQTSGGSVYSIAVTNHHIVCGTYENLIHVWDIESKEQVRTLTGHVGTVYALAVISTPDQTKVFSASYDRSLRVWSMDNMICTQTLLRHQGSVTALAVSRGRLFSGAVDSTVKVWTC [TRAF7]”, in the series on HeLa Kyoto [1] (cell cycle stage: G1/S), the melting temperature was 50.5 °C. In the series on HeLa Kyoto [2], the “solubility change mitosis (log2)” value was -0.0251. The thermal stability score is -0.465 with HeLa Kyoto [3] (setting [5]) and 0.328 in the series on HeLa Kyoto [3] (cell cycle stage: mitosis). For the same sequence, the “solubility in G1/S (log2)” value with HeLa Kyoto [4] is -0.171.
For “MAQRGGARRPRGDRERLGSRLRALRPGREPRQSEPPAQRGPPPSGRPPARSTASGHDRPTRGAAAGARRPRMKKKTRRRSTRSEELTRSEELTLSEEATWSEEATQSEEATQGEEMNRSQEVTRDEESTRSEEVTREEMAAAGLTVTVTHSNEKHDLHVTSQQGSSEPVVQDLAQVVEEVIGVPQSFQKLIFKGKSLKEMETPLSALGIQDGCRVMLIGKKNSPQEEVELKKLKHLEKSVEKIADQLEELNKELTGIQQGFLPKDLQAEALCKLDRRVKATIEQFMKILEEIDTLILPENFKDSRLKRKGLVKKVQAFLAECDTVEQNICQETERLQSTNFALAE [BAG1]”, the melting temperature was found to be 54.3 °C in the series on HeLa Kyoto [1] (cell cycle stage: G1/S) and 53.7 °C in the series with HeLa Kyoto [1] (cell cycle stage: mitosis). Moreover, the “solubility change mitosis (log2)” value in the series with HeLa Kyoto [2] was found to be 0.0327. Further, the values for the thermal stability score in the series with HeLa Kyoto [3] (setting [5]) and in the series with HeLa Kyoto [3] (cell cycle stage: mitosis) were 0.492 and -2.14, respectively. Moreover, the “solubility in G1/S (log2)” value with HeLa Kyoto [4] was 0.0346.
As for “MAAGGGGSCDPLAPAGVPCAFSPHSQAYFALASTDGHLRVWETANNRLHQEYVPSAHLSGTCTCLAWAPARLQAKESPQRKKRKSEAVGMSNQTDLLALGTAVGSILLYSTVKGELHSKLISGGHDNRVNCIQWHQDSGCLYSCSDDKHIVEWNVQTCKVKCKWKGDNSSVSSLCISPDGKMLLSAGRTIKLWVLETKEVYRHFTGHATPVSSLMFTTIRPPNESQPFDGITGLYFLSGAVHDRLLNVWQVRSENKEKSAVMSFTVTDEPVYIDLTLSENKEEPVKLAVVCRDGQVHLFEHILNGYCKKPLTSNCTIQIATPGKGKKSTPKPIPILAAGFCSDKMSLLLVYGSWFQPTIERVALNSREPHMCLVRDISNCWAPKVETAITKVRTPVMNSEAKVLVPGIPGHHAAIKPAPPQTEQVESKRKSGGNEVSIEERLGAMDIDTHKKGKEDLQTNSFPVLLTQGLESNDFEMLNKVLQTRNVNLIKKTVLRMPLHTIIPLLQELTKRLQGHPNSAVLMVQWLKCVLTVHASYLSTLPDLVPQLGTLYQLMESRVKTFQKLSHLHGKLILLITQVTASEKTKGATSPGQKAKLVYEEESSEEESDDEIADKDSEDNWDEDEEESESEKDEDVEEEDEDAEGKDEENGEDRDTASEKELNGDSDLDPENESEEE [WDR43]”, the melting temperature with HeLa Kyoto [1] (cell cycle stage: G1/S) worked out at 58.6 °C; in the series with HeLa Kyoto [1] (cell cycle stage: mitosis), 55.7 °C. In the series with HeLa Kyoto [2], the “solubility change mitosis (log2)” value came out at 0.783. The thermal stability score in the series on HeLa Kyoto [3] (setting [5]) is -1.7; in the series on HeLa Kyoto [3] (cell cycle stage: mitosis), -6.5. In addition, in the series on HeLa Kyoto [4], the “solubility in G1/S (log2)” value is -1.29.
In the case of “MDMKRRIHLELRNRTPAAVRELVLDNCKSNDGKIEGLTAEFVNLEFLSLINVGLISVSNLPKLPKLKKLELSENRIFGGLDMLAEKLPNLTHLNLSGNKLKDISTLEPLKKLECLKSLDLFNCEVTNLNDYRESVFKLLPQLTYLDGYDREDQEAPDSDAEVDGVDEEEEDEEGEDEEDEDDEDGEEEEFDEEDDEDEDVEGDEDDDEVSEEEEEFGLDEEDEDEDEDEEEEEGGKGEKRKRETDDEGEDD [ANP32B]”, the melting temperature in the series with HeLa Kyoto [1] (cell cycle stage: G1/S) is 48.5 °C; in the series with HeLa Kyoto [1] (cell cycle stage: mitosis), 53.3 °C. Further, the “solubility change mitosis (log2)” value in the series with HeLa Kyoto [2] turned out to be 0.205. The values for the thermal stability score in the series on HeLa Kyoto [3] (setting [5]) and with HeLa Kyoto [3] (cell cycle stage: mitosis) were 2.33 and 3.78, respectively. Further, the “solubility in G1/S (log2)” value in the series with HeLa Kyoto [4] is -0.0836.
As to “MESPASSQPASMPQSKGKSKRKKDLRISCMSKPPAPNPTPPRNLDSRTFITIGDRNFEVEADDLVTISELGRGAYGVVEKVRHAQSGTIMAVKRIRATVNSQEQKRLLMDLDINMRTVDCFYTVTFYGALFREGDVWICMELMDTSLDKFYRKVLDKNMTIPEDILGEIAVSIVRALEHLHSKLSVIHRDVKPSNVLINKEGHVKMCDFGISGYLVDSVAKTMDAGCKPYMAPERINPELNQKGYNVKSDVWSLGITMIEMAILRFPYESWGTPFQQLKQVVEEPSPQLPADRFSPEFVDFTAQCLRKNPAERMSYLELMEHPFFTLHKTKKTDIAAFVKEILGEDS [MAP2K3]”, the melting temperature in the series with HeLa Kyoto [1] (cell cycle stage: G1/S) turned out to be 48.8 °C; with HeLa Kyoto [1] (cell cycle stage: mitosis) it was 50.1 °C. Also, the “solubility change mitosis (log2)” value in the series with HeLa Kyoto [2] is -0.112. In addition, the thermal stability score came to 1.81 in the series on HeLa Kyoto [3] (setting [5]) and 2.08 with HeLa Kyoto [3] (cell cycle stage: mitosis). Also, the “solubility in G1/S (log2)” value in the series with HeLa Kyoto [4] was -0.00226.
On to “MLRACQLSGVTAAAQSCLCGKFVLRPLRPCRRYSTSGSSGLTTGKIAGAGLLFVGGGIGGTILYAKWDSHFRESVEKTIPYSDKLFEMVLGPAAYNVPLPKKSIQSGPLKISSVSEVMKESKQPASQLQKQKGDTPASATAPTEAAQIISAAGDTLSVPAPAVQPEESLKTDHPEIGEGKPTPALSEEASSSSIRERPPEEVAARLAQQEKQEQVKIESLAKSLEDALRQTASVTLQAIAAQNAAVQAVNAHSNILKAAMDNSEIAGEKKSAQWRTVEGALKERRKAVDEAADALLKAKEELEKMKSVIENAKKKEVAGAKPHITAAEGKLHNMIVDLDNVVKKVQAAQSEAKVVSQYHELVVQARDDFKRELDSITPEVLPGWKGMSVSDLADKLSTDDLNSLIAHAHRRIDQLNRELAEQKATEKQHITLALEKQKLEEKRAFDSAVAKALEHHRSEIQAEQDRKIEEVRDAMENEMRTQLRRQAAAHTDHLRDVLRVQEQELKSEFEQNLSEKLSEQELQFRRLSQEQVDNFTLDINTAYARLRGIEQAVQSHAVAEEEARKAHQLWLSVEALKYSMKTSSAETPTIPLGSAVEAIKANCSDNEFTQALTAAIPPESLTRGVYSEETLRARFYAVQKLARRVAMIDETRNSLYQYFLSYLQSLLLFPPQQLKPPPELCPEDINTFKLLSYASYCIEHGDLELAAKFVNQLKGESRRVAQDWLKEARMTLETKQIVEILTAYASAVGIGTTQVQPE [IMMT]”, for which the melting temperature with HeLa Kyoto [1] (cell cycle stage: G1/S) came to 53.2 °C; in the series on HeLa Kyoto [1] (cell cycle stage: mitosis), 52 °C. The “solubility change mitosis (log2)” value in the series with HeLa Kyoto [2] is 0.0268. Besides, the thermal stability score is 0.171 with HeLa Kyoto [3] (setting [5]) and -1.21 in the series with HeLa Kyoto [3] (cell cycle stage: mitosis). Besides, the “solubility in G1/S (log2)” value in the series on HeLa Kyoto [4] was 0.38.
For the sequence “MPGSLPLNAEACWPKDVGIVALEIYFPSQYVDQAELEKYDGVDAGKYTIGLGQAKMGFCTDREDINSLCMTVVQNLMERNNLSYDCIGRLEVGTETIIDKSKSVKTNLMQLFEESGNTDIEGIDTTNACYGGTAAVFNAVNWIESSSWDGRYALVVAGDIAVYATGNARPTGGVGAVALLIGPNAPLIFERGLRGTHMQHAYDFYKPDMLSEYPIVDGKLSIQCYLSALDRCYSVYCKKIHAQWQKEGNDKDFTLNDFGFMIFHSPYCKLVQKSLARMLLNDFLNDQNRDKNSIYSGLEAFGDVKLEDTYFDRDVEKAFMKASSELFSQKTKASLLVSNQNGNMYTSSVYGSLASVLAQYSPQQLAGKRIGVFSYGSGLAATLYSLKVTQDATPGSALDKITASLCDLKSRLDSRTGVAPDVFAENMKLREDTHHLVNYIPQGSIDSLFEGTWYLVRVDEKHRRTYARRPTPNDDTLDEGVGLVHSNIATEHIPSPAKKVPRLPATAAEPEAAVISNGEH [HMGCS1]”, the melting temperature was 54 °C in the series with HeLa Kyoto [1] (cell cycle stage: G1/S) and 55.2 °C with HeLa Kyoto [1] (cell cycle stage: mitosis). In the series with HeLa Kyoto [2], the “solubility change mitosis (log2)” value is -0.0813. Moreover, the thermal stability score was -0.19 in the series with HeLa Kyoto [3] (setting [5]) and 3.42 with HeLa Kyoto [3] (cell cycle stage: mitosis). Besides, the “solubility in G1/S (log2)” value with HeLa Kyoto [4] is 0.0526.
